Measurements reported in PMC4802596, “Using the β-glucosidase catalyzed reaction product glucose to improve the ionic liquid tolerance of β-glucosidases” (Biotechnology for Biofuels, 2016).

Experiments:
[1] = system: O=[N+]([O-])c1ccc(O[C@@H]2O[C@H](CO)[C@@H](O)[C@H](O)[C@H]2O)cc1; assay: purified protein; details: 50 mM potassium phosphate pH 7.2, 52 °C, 5 min, text b17 prints a different Km than Tables 1-3
[2] = system: O=[N+]([O-])c1ccc(O[C@@H]2O[C@H](CO)[C@H](O)[C@H](O)[C@H]2O)cc1; assay: purified protein; details: 50 mM potassium phosphate pH 7.2, 52 °C, 5 min

Q: With H0HC94 (Agrobacterium tumefaciens 5A) as the substance, how does the Km [1] read?
A: Its Km is 3.09 ± 0.40 mM.

Q: And the kcat [1]?
A: The kcat was 278 ± 4 s⁻¹.

Q: What about the kcat/Km [1] of the same substance?
A: The kcat/Km was 89900 M⁻¹ s⁻¹.

Q: And the Km [2]?
A: Its Km is 12.93 ± 2.00 mM.

Q: What about the kcat [2] of the same substance?
A: Its kcat is 215 ± 7 s⁻¹.

Q: What about the kcat/Km [2] of the same substance?
A: Its kcat/Km is 16600 M⁻¹ s⁻¹.
